According to article PMC2980497:

Target: MutL (Escherichia coli) (UniProt P23367)
Assay: single-molecule flow-extension
Conditions: 25 mM NaCl, 0.5 mM ATP, 2.5 pN; S0.5, multiple MutL bind; smFRET: 20 mM Tris-HCl pH 7.5, 25-150 mM NaCl (25 mM standard), 0.1 mM EDTA, 3 mM MgCl2, 0.5 mM ATP, 1 mM DTT, oxygen scavenger with 2 mM trolox …

UniProt P23367, sequence (P23367 whole entry): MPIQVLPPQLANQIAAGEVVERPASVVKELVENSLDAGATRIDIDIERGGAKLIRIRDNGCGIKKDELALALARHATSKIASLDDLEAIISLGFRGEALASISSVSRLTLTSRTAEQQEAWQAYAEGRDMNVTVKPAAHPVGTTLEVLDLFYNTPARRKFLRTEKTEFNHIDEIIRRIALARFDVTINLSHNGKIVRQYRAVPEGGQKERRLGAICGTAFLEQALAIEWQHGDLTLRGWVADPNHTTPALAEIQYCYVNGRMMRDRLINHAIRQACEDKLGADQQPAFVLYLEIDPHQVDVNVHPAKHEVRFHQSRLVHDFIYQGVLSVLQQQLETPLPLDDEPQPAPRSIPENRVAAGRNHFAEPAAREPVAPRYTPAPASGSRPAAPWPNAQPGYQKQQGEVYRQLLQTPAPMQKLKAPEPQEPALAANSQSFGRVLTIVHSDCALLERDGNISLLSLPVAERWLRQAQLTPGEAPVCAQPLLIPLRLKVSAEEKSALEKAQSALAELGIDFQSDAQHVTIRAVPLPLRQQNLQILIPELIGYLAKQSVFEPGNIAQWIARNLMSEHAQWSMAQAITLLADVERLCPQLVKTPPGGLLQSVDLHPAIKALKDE

5.3 kb ssDNA
K half: 24 nM
